T1: mouse FcγRII extracellular domain, C-terminal His tag (mouse, UniProt P08101 30-210)
T1 construct: also called mFcγRII; mFcgRII
T1 sequence: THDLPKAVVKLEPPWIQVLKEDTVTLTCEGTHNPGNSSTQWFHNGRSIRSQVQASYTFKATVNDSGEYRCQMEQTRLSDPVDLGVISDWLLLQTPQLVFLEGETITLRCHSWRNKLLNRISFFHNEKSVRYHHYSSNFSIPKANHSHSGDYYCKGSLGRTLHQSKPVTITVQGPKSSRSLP

T2: mouse FcγRIII extracellular domain, C-terminal His tag (mouse, UniProt P08508 31-215)
T2 construct: also called mFcγRIII; mFcgRIII
T2 chain: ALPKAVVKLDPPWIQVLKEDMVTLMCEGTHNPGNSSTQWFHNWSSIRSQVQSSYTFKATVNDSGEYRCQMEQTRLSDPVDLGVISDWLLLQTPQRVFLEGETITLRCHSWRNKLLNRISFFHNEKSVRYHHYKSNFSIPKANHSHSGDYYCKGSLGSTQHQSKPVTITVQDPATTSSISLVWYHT


Tests used:
[1] = target: T1, mouse FcγRII extracellular domain, …; assay: SPR (Biacore T200), antibody captured on Protein L, mFcγR analyte
Procedure: (§1) Each altered antibody was analyzed for its interaction with each Fcγ receptor prepared above using Biacore T100 (GE Healthcare Japan Corp.), Biacore T200 (GE Healthcare Japan Corp.), Biacore A100, or Biacore 4000. The running buffer used was HBS-EP+ (GE Healthcare Japan Corp.). The assay temperature was set to 25° C. The sensor chips used were chips prepared by immobilizing Protein L (ACTIGEN or BioVision) onto Series S Sensor Chip CM5 (GE Healthcare Japan Corp.) or Series S Sensor Chip CM4 (GE Healthcare Japan Corp.) by the amine coupling method.
(§2) In order to calculate the KD value of each altered antibody for FcγR, kinetic analysis was conducted according to the following method: first, the antibody of interest was captured onto any of these chips and allowed to interact with mFcγR diluted with a running buffer. For the obtained sensorgram, the assay results were globally fit into the 1:1 Langmuir binding model using Biacore Evaluation Software to calculate an association rate constant ka (L/mol/s) and a dissociation rate constant kd (1/s). From these values, the dissociation constant KD (mol/L) was calculated.

[2] = target: T2, mouse FcγRIII extracellular domain, …; assay: as above
Procedure: as §1, §2

| Kd [1] [nM] | relative mFcγRII-binding activity (mIgG1 = 1) [1] | Kd [2] [nM] | relative mFcγRIII-binding activity (mIgG1 = 1) [2] | Binder |
| --- | --- | --- | --- | --- |
| 7.13 | 29.4 fold vs H237-mIgG1/MRAL-k0 | 705 | 0.4 fold vs H237-mIgG1/MRAL-k0 | H237-MB750/MRAL-k0 (antibody, mouse IgG1, kappa, copies: 2 + 2) heavy: QVQLQESGPGLVKPSETLSLTCAVSGHSISHDHAWSWVRQPPGEGLEWIGFISYSGITNYNPSLQGRVTISRDNSKNTLYLQMNSLRAEDTAVYYCARSLARTTAMDYWGEGTLVTVSSAKTTPPSVYPLAPGSAAQTNSMVTLGCLVKGYFPEPVTVTWNSGSLSSGVHTFPAVLQSDLYTLSSSVTVPSSTWPSETVTCNVAHPASSTKVDKKIVPRDCGCKPCICEPNEVELVFIFPPKPKDVLTITLTPKVTCVVVDISKDDPEVQFSWFVDDVEVHTAQTQPREEQFNSTFRSVSELPIMHQDWLNGKEFKCRVNSDAFPAPIEKTISKTKGRPKAPQVYTIPPPKEQMAKDKVSLTCMITDFFPEDITVEWQWNGQPAENYKNTQPIMDTDGSYFVYSKLNVQKSNWEAGNTFTCSVLHEGLHNHHTEKSLSHSPGK light: not shown |
| 0.804 | 261 fold vs H237-mIgG1/MRAL-k0 | 107 | 2.6 fold vs H237-mIgG1/MRAL-k0 | H237-MB476/MRAL-k0 (antibody, mouse IgG1, kappa, copies: 2 + 2) heavy: QVQLQESGPGLVKPSETLSLTCAVSGHSISHDHAWSWVRQPPGEGLEWIGFISYSGITNYNPSLQGRVTISRDNSKNTLYLQMNSLRAEDTAVYYCARSLARTTAMDYWGEGTLVTVSSAKTTPPSVYPLAPGSAAQTNSMVTLGCLVKGYFPEPVTVTWNSGSLSSGVHTFPAVLQSDLYTLSSSVTVPSSTWPSETVTCNVAHPASSTKVDKKIVPRDCGCKPCICQPNEVEEVFIFPPKPKDVLTITLTPKVTCVVVDISKDDPEVQFSWFVDDVEVHTAQTQPREEQFNSTFRSVSELPIMHQDWLNGKEFKCRVNSAAFPAPIEKTISKTKGRPKAPQVYTIPPPKEQMAKDKVSLTCMITDFFPEDITVEWQWNGQPAENYKNTQPIMDTDGSYFVYSKLNVQKSNWEAGNTFTCSVLHEGLHNHHTEKSLSHSPGK light: not shown |
| 0.768 | 273 fold vs H237-mIgG1/MRAL-k0 | 51 | 5.5 fold vs H237-mIgG1/MRAL-k0 | H237-MB527/MRAL-k0 (antibody, mouse IgG1, kappa, copies: 2 + 2) heavy: QVQLQESGPGLVKPSETLSLTCAVSGHSISHDHAWSWVRQPPGEGLEWIGFISYSGITNYNPSLQGRVTISRDNSKNTLYLQMNSLRAEDTAVYYCARSLARTTAMDYWGEGTLVTVSSAKTTPPSVYPLAPGSAAQTNSMVTLGCLVKGYFPEPVTVTWNSGSLSSGVHTFPAVLQSDLYTLSSSVTVPSSTWPSETVTCNVAHPASSTKVDKKIVPRDCGCKPCICQPNEVEEVFIFPPKPKDVLTITLTPKVTCVVVDISKDDPEVQFSWFVDDVEVHTAQTQPREEQFNLTFRSVSELPIMHQDWLNGKEFKCRVDSAAFPAPIEKTISKTKGRPKAPQVYTIPPPKEQMAKDKVSLTCMITDFFPEDITVEWQWNGQPAENYKNTQPIMDTDGSYFVYSKLNVQKSNWEAGNTFTCSVLHEGLHNHHTEKSLSHSPGK light: not shown |
| 1.53 | 137 fold vs H237-mIgG1/MRAL-k0 | 214 | 1.3 fold vs H237-mIgG1/MRAL-k0 | H237-MB515/MRAL-k0 (antibody, mouse IgG1, kappa, copies: 2 + 2) heavy: QVQLQESGPGLVKPSETLSLTCAVSGHSISHDHAWSWVRQPPGEGLEWIGFISYSGITNYNPSLQGRVTISRDNSKNTLYLQMNSLRAEDTAVYYCARSLARTTAMDYWGEGTLVTVSSAKTTPPSVYPLAPGSAAQTNSMVTLGCLVKGYFPEPVTVTWNSGSLSSGVHTFPAVLQSDLYTLSSSVTVPSSTWPSETVTCNVAHPASSTKVDKKIVPRDCGCKPCICEPNEVEMVFIFPPKPKDVLTITLTPKVTCVVVDISKDDPEVQFSWFVDDVEVHTAQTQPREEQFNSTFRSVSELPIMHQDWLNGKEFKCRVNSAAFPAPIEKTISKTKGRPKAPQVYTIPPPKEQMAKDKVSLTCMITDFFPEDITVEWQWNGQPAENYKNTQPIMDTDGSYFVYSKLNVQKSNWEAGNTFTCSVLHEGLHNHHTEKSLSHSPGK light: not shown |
| 0.534 | 394 fold vs H237-mIgG1/MRAL-k0 | 39 | 7.2 fold vs H237-mIgG1/MRAL-k0 | H237-MB533/MRAL-k0 (antibody, mouse IgG1, kappa, copies: 2 + 2) heavy: QVQLQESGPGLVKPSETLSLTCAVSGHSISHDHAWSWVRQPPGEGLEWIGFISYSGITNYNPSLQGRVTISRDNSKNTLYLQMNSLRAEDTAVYYCARSLARTTAMDYWGEGTLVTVSSAKTTPPSVYPLAPGSAAQTNSMVTLGCLVKGYFPEPVTVTWNSGSLSSGVHTFPAVLQSDLYTLSSSVTVPSSTWPSETVTCNVAHPASSTKVDKKIVPRDCGCKPCICQPNEVEEVFIFPPKPKDVLTITLTPKVTCVVVDISKDDPEVQFSWFVDDVEVHTAQTQPREEQFNLTFRSVSELPIMHQDWLNGKEFKCRVDSDAFPAPIEKTISKTKGRPKAPQVYTIPPPKEQMAKDKVSLTCMITDFFPEDITVEWQWNGQPAENYKNTQPIMDTDGSYFVYSKLNVQKSNWEAGNTFTCSVLHEGLHNHHTEKSLSHSPGK light: not shown |
| 0.918 | 229 fold vs H237-mIgG1/MRAL-k0 | 85 | 3.3 fold vs H237-mIgG1/MRAL-k0 | H237-MB531/MRAL-k0 (antibody, mouse IgG1, kappa, copies: 2 + 2) heavy: QVQLQESGPGLVKPSETLSLTCAVSGHSISHDHAWSWVRQPPGEGLEWIGFISYSGITNYNPSLQGRVTISRDNSKNTLYLQMNSLRAEDTAVYYCARSLARTTAMDYWGEGTLVTVSSAKTTPPSVYPLAPGSAAQTNSMVTLGCLVKGYFPEPVTVTWNSGSLSSGVHTFPAVLQSDLYTLSSSVTVPSSTWPSETVTCNVAHPASSTKVDKKIVPRDCGCKPCICQPNEVEEVFIFPPKPKDVLTITLTPKVTCVVVDISKDDPEVQFSWFVDDVEVHTAQTQPREEQFNSTFRSVSELPIMHQDWLNGKEFKCRVDSAAFPAPIERTISKTKGRPKAPQVYTIPPPKEQMAKDKVSLTCMITDFFPEDITVEWQWNGQPAENYKNTQPIMDTDGSYFVYSKLNVQKSNWEAGNTFTCSVLHEGLHNHHTEKSLSHSPGK light: not shown |
| 0.745 | 282 fold vs H237-mIgG1/MRAL-k0 | 47.6 | 5.9 fold vs H237-mIgG1/MRAL-k0 | H237-MB529/MRAL-k0 (antibody, mouse IgG1, kappa, copies: 2 + 2) heavy: QVQLQESGPGLVKPSETLSLTCAVSGHSISHDHAWSWVRQPPGEGLEWIGFISYSGITNYNPSLQGRVTISRDNSKNTLYLQMNSLRAEDTAVYYCARSLARTTAMDYWGEGTLVTVSSAKTTPPSVYPLAPGSAAQTNSMVTLGCLVKGYFPEPVTVTWNSGSLSSGVHTFPAVLQSDLYTLSSSVTVPSSTWPSETVTCNVAHPASSTKVDKKIVPRDCGCKPCICQPNEVEEVFIFPPKPKDVLTITLTPKVTCVVVDISKDDPEVQFSWFVDDVEVHTAQTQPREEQFNLTFRSVSELPIMHQDWLNGKEFKCRVNSAAFPAPIERTISKTKGRPKAPQVYTIPPPKEQMAKDKVSLTCMITDFFPEDITVEWQWNGQPAENYKNTQPIMDTDGSYFVYSKLNVQKSNWEAGNTFTCSVLHEGLHNHHTEKSLSHSPGK light: not shown |
| 0.639 | 329 fold vs H237-mIgG1/MRAL-k0 | 45.4 | 6.2 fold vs H237-mIgG1/MRAL-k0 | H237-MB532/MRAL-k0 (antibody, mouse IgG1, kappa, copies: 2 + 2) heavy: QVQLQESGPGLVKPSETLSLTCAVSGHSISHDHAWSWVRQPPGEGLEWIGFISYSGITNYNPSLQGRVTISRDNSKNTLYLQMNSLRAEDTAVYYCARSLARTTAMDYWGEGTLVTVSSAKTTPPSVYPLAPGSAAQTNSMVTLGCLVKGYFPEPVTVTWNSGSLSSGVHTFPAVLQSDLYTLSSSVTVPSSTWPSETVTCNVAHPASSTKVDKKIVPRDCGCKPCICQPNEVEEVFIFPPKPKDVLTITLTPKVTCVVVDISKDDPEVQFSWFVDDVEVHTAQTQPREEQFNSTFRSVSELPIMHQDWLNGKEFKCRVNSDAFPAPIERTISKTKGRPKAPQVYTIPPPKEQMAKDKVSLTCMITDFFPEDITVEWQWNGQPAENYKNTQPIMDTDGSYFVYSKLNVQKSNWEAGNTFTCSVLHEGLHNHHTEKSLSHSPGK light: not shown |
| 0.337 | 623 fold vs H237-mIgG1/MRAL-k0 | 35.1 | 8 fold vs H237-mIgG1/MRAL-k0 | H237-MB530/MRAL-k0 (antibody, mouse IgG1, kappa, copies: 2 + 2) heavy: QVQLQESGPGLVKPSETLSLTCAVSGHSISHDHAWSWVRQPPGEGLEWIGFISYSGITNYNPSLQGRVTISRDNSKNTLYLQMNSLRAEDTAVYYCARSLARTTAMDYWGEGTLVTVSSAKTTPPSVYPLAPGSAAQTNSMVTLGCLVKGYFPEPVTVTWNSGSLSSGVHTFPAVLQSDLYTLSSSVTVPSSTWPSETVTCNVAHPASSTKVDKKIVPRDCGCKPCICQPNEVEEVFIFPPKPKDVLTITLTPKVTCVVVDISKDDPEVQFSWFVDDVEVHTAQTQPREEQFNSTFRSVSELPIMHQDWLNGKEFKCRVDSDAFPAPIEKTISKTKGRPKAPQVYTIPPPKEQMAKDKVSLTCMITDFFPEDITVEWQWNGQPAENYKNTQPIMDTDGSYFVYSKLNVQKSNWEAGNTFTCSVLHEGLHNHHTEKSLSHSPGK light: not shown |
